Measurements: patent US20230381228A1 (University of California, published 2023)

Target: T1, dipeptidyl aminopeptidase-like protein 6 (DPP6), human isoform 1 (human, UniProt P42658 117-865, limits assumed)
T1 construct: also called DPPX; DPP6 L
Experiment: affinity, method not stated (Table 1-4)

T1 sequence (P42658 117-865 limits assumed): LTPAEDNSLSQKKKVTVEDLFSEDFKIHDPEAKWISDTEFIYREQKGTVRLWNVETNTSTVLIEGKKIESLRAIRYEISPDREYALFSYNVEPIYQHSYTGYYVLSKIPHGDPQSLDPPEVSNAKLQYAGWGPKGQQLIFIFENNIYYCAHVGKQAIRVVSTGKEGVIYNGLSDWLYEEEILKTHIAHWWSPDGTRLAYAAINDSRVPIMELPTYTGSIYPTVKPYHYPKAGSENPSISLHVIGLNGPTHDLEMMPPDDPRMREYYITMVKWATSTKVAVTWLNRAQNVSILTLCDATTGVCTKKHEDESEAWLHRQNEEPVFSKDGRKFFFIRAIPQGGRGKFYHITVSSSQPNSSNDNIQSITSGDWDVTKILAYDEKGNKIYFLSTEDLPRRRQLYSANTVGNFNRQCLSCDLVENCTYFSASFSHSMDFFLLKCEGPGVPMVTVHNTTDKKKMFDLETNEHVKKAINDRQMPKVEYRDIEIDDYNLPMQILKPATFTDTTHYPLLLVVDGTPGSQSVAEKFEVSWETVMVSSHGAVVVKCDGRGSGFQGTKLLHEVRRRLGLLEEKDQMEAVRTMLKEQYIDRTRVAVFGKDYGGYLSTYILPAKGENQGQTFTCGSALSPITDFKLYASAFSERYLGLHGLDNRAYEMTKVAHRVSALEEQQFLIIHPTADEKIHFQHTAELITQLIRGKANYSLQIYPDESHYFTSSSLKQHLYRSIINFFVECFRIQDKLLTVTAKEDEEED

| Binder | Kd |
| --- | --- |
| anti-DPP6 nanobody 2hD1 (VHH) VHH: QVQLQESGGGLVQPGGSLRLSCAASGYPYGYTFSSYCMRWFRQAPGKDREGVARFERNGLTTYYDDSVKGRFTISQDNVKNTVYLQMNSLKPEDTATYYCAAAPKQLRTCGDYNYWGQGTQVTVSS | 69 nM |
| anti-DPP6 nanobody 2hD6 (VHH) VHH: QVQLQESGGGSVQAGGSLRLSCAASSYTYSYSCMAWFRQAPGKERERVASIHTGTGTANYADSAKGRFTISQDIAANTVYLQMNSLKLEDTAMYYCAARPGSAALRCTTDYSKPHDFTYWGQGTQVTVSS | 13 nM |

Next, values leading:

| Kd | Binder |
| --- | --- |
| 27.2 nM | anti-DPP6 nanobody 2hD123-A24V (VHH) VHH: QVQLQESGGGSVQAGGSLRLSCAVSGSSYSRFRMGWFRQVPGKEREGVAAIYRSDGRTYYADSVKGRFTISQDNTKNTVYLQMNSLKPEDTAMYYCAAGAYSSYLMDANFAYWGQGTQVTVSS |
| 1.2 nM | anti-DPP6 nanobody 4hD29 (VHH) VHH: QVQLQESGGGLVQPGGSLRLSCAASGFTFSSNYMTWVRQAPGKGPEWVSGINPDGSSTYYADSVKGRFTISRDNAKNTLYLQMNSLKSEDTALYKCATGAAPRIPTTLRGQGTQVTVSS |
